Measurements as given in patent US20180362643A1 (Amgen, published 2018).
Ends that are not written are not given here.

Columns and labels:
[1] = target: T1, full-length human PACAP38 (human, not fully specified); assay: cell-based or functional assay
T1 peptide: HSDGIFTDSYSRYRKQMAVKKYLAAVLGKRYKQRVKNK

human PACAP27 = target: T2, human PACAP27 (human, not fully specified); assay: cell-based or functional assay
T2 peptide: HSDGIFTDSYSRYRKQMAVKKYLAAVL

[2] = target: T3, carboxy terminal PACAP38 peptide (amino acids 28-38) (human, ends and bridges not checked); assay: ELISA screen of B-cell culture supernatant
T3 construct: also called C-terminal Peptide; C-terminal PACAP peptide
T3 peptide: GKRYKQRVKNK

[3] = target: T4, vasoactive intestinal peptide (VIP) (human); assay: ELISA screen of B-cell culture supernatant; VIP at 100 ng/mL
T4 construct: also called human VIP
T4 peptide: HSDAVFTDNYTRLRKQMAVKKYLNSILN

[4] = target: T5, PACAP38 peptide fragment 27-38 (human, ends and bridges not checked); assay: SPR (Biacore 3000) solution competition against immobilised PACAP38
T5 construct: also called peptide No. 6
T5 peptide: LGKRYKQRVKNK

[5] = target: T3, carboxy terminal PACAP38 peptide (amino …); assay: ELISA screen of B-cell culture supernatant; C-terminal peptide at 500 ng/mL
Source text: (§1) Rabbits were immunized with human PACAP38 peptide ([…]; SEQ ID NO: 1). Monoclonal antibodies were generated from the immunized rabbits using the Selected Lymphocyte Antibody Method (SLAM) as described in Babcook et al., Proc. Natl. Acad. Sci. USA, Vol. 93: 7843-7848, 1996. Briefly, B cells were harvested from spleens from the immunized rabbits and expanded in culture. The supernatant from the expanded B-cell cultures was initially screened for binding to an amino terminal PACAP38 peptide ([…]; SEQ ID NO: 5) and a carboxy terminal PACAP38 peptide ([…]; SEQ ID NO: 4) using an ELISA assay. From the initial screen, 2,935 N-terminal and/or C-terminal binders were identified. The affinity of these antibodies for full-length human PACAP38 (SEQ ID NO: 1) was assessed by ELISA assay.

[6] = target: T1, full-length human PACAP38; assay: ELISA screen of B-cell culture supernatant; full-length PACAP38 at 10 ng/mL
Source text: as §1

[7] = target: T6, PACAP38 peptide fragment 6-37 (human); assay: SPR (Biacore 3000) solution competition: antibody pre-incubated 1:200 with the fragment, then injected over immobilised PACAP38
T6 construct: also called peptide No. 3
T6 peptide: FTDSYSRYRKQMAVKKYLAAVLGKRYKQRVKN
Experimental: (§2) In this experiment, various peptide fragments of PACAP38 were incubated with each of the six antibodies (mAb1, mAb2, mAb3, mAb4, mAb5, and mAb6) described in Example 2 and evaluated for their ability to inhibit binding of the antibodies to full-length PACAP38 immobilized on the sensor-chip. The binding epitopes for each of the antibodies were deduced from the set of peptides that were able to inhibit the binding of each antibody to full-length PACAP38.
(§3) Each of the six anti-PACAP antibodies was incubated at a 1:200 molar ratio (Ab: peptide fragment) with each of the peptide fragments in Table 9 at an ambient temperature for 2 hours prior to analysis. […] A second control containing 6.5 nM antibody was prepared in sample diluent to be used as the untreated control sample for each antibody. Full-length PACAP38, buffer, and each peptide fragment were also tested to evaluate non-specific binding to the immobilized PACAP38 surface.

[8] = target: T7, PACAP38 peptide fragment 6-35 (human); assay: as above
T7 construct: also called peptide No. 4
T7 peptide: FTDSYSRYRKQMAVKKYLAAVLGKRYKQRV
Experimental: as §2, §3

[9] = target: T8, PACAP38 peptide fragment 4-27 (human); assay: as above
T8 construct: also called peptide No. 9
T8 peptide: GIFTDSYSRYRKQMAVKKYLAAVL
Experimental: as §2, §3

[10] = target: T9, PACAP38 peptide fragment 6-38 (human, not fully specified); assay: as above
T9 construct: also called peptide No. 11
T9 peptide: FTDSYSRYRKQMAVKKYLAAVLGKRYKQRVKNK
Experimental: as §2, §3

[11] = target: T10, PACAP38 peptide fragment 6-36 (human); assay: as above
T10 construct: also called peptide No. 12
T10 peptide: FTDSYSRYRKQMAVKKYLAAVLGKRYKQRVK
Experimental: as §2, §3

[12] = target: T11, PACAP38 peptide fragment 6-20 (human); assay: as above
T11 construct: also called peptide No. 13
T11 peptide: FTDSYSRYRKQMAVK
Experimental: as §2, §3

31-38 [13] = target: T12, 31-38 (ends and bridges not checked); assay: SPR (Biacore 3000), solution competition with the peptide for antibody binding to immobilised full-length PACAP38; % inhibition
T12 construct: also called PACAP38 peptide fragment 31-38; peptide No. 5
T12 peptide: YKQRVKNK
Experimental: (§4) The binding epitopes of anti-PACAP antibodies were evaluated by using the Biacore 3000 biosensor-based instrument (GE Healthcare USA). The Biacore 3000 instrument utilizes surface plasmon resonance (SPR) technology to measure mass increase on the sensor-chip surface. The binding interactions are measured in real-time and recorded as Response Units (RU). Each binding profile (cycle) is stored in a “sensorgram” in real-time. Generally, Biacore technology entails immobilizing a ligand of interest on to a flow-cell of the sensor-chip via a coupling chemistry. The analyte (e.g. putative binding partner to the ligand of interest) is injected across the immobilized ligand allowing it to bind to the ligand-immobilized surface. The magnitude of the response is directly proportional to the mass increase on the immobilized surface due to the binding of the analyte.
as §2, §3

30-37 = target: T13, 30-37; assay: as above
T13 construct: also called PACAP38 peptide fragment 30-37; peptide No. 19
T13 peptide: RYKQRVKN
Experimental: as §4, §2, §3

[14] = target: T14, PACAP38 peptide fragment 14-38 (human, not fully specified); assay: as above
T14 construct: also called peptide No. 7
T14 peptide: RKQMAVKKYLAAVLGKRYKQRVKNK
Experimental: as §4, §2, §3

[15] = target: T15, PACAP38 peptide fragment 11-27 (human); assay: as above
T15 construct: also called peptide No. 8
T15 peptide: SRYRKQMAVKKYLAAVL
Experimental: as §4, §2, §3

[16] = target: T16, PACAP38 peptide fragment 34-38 (human, ends and bridges not checked); assay: as above
T16 construct: also called peptide No. 17; RVKNK
T16 peptide: RVKNK
Experimental: as §4, §2, §3

[17] = target: T17, amino terminal PACAP38 peptide (amino acids 1-13) (human); assay: ELISA screen of B-cell culture supernatant; N-terminal peptide at 500 ng/mL; ELISA screen of B-cell culture supernatant (Example 1); N-terminal peptide 500 ng/mL; optical density
T17 construct: also called N-terminal Peptide; N-terminal PACAP peptide
T17 peptide: HSDGIFTDSYSRY
Source text: as §1

[18] = target: T4, vasoactive intestinal peptide (VIP); assay: ELISA screen of B-cell culture supernatant
[19] = target: T17, amino terminal PACAP38 peptide (amino …); assay: ELISA screen of B-cell culture supernatant; N-terminal peptide at 500 ng/mL
[20] = target: T17, amino terminal PACAP38 peptide (amino …); assay: SPR (Biacore 3000), solution competition with the peptide for antibody binding to immobilised full-length PACAP38; % inhibition
Experimental: as §4, §2, §3

[21] = target: T11, PACAP38 peptide fragment 6-20; assay: as above
Experimental: as §4, §2, §3

[22] = target: T5, PACAP38 peptide fragment 27-38; assay: SPR (Biacore 3000), solution competition: antibody pre-incubated 2 h with the peptide at 1:200 molar ratio (Ab:peptide), then injected over immobilised full-length PACAP38; readout % inhibition of antibody binding (filing counts >50 % as reactive)
Experimental: as §4, §2, §3

[23] = target: T18, PACAP38 peptide fragment 26-33 (human); assay: SPR (Biacore 3000) solution competition against immobilised PACAP38
T18 construct: also called peptide No. 2
T18 peptide: VLGKRYKQ

31-38 [24] = target: T12, 31-38; assay: SPR (Biacore 3000), solution competition: antibody pre-incubated 2 h with the peptide at 1:200 molar ratio (Ab:peptide), then injected over immobilised full-length PACAP38; readout % inhibition of antibody binding (filing counts >50 % as reactive)
Experimental: as §4, §2, §3

B1: mAb4 (antibody, V domains shown)
VH: QSVEESGGRLVTPGTPLTLTCTASGIDLSSYAMIWVRQAPGEGLEYIGFIDAGDGNTYYASWAKGRFTISKTSTTVDLKITSPTTEDTATYFCARGDPGWSNGFALWGQGTLVTVSS
VL: DIVMTQTPASVSGAVGGTVTIKCQASQSIRNELSWYQQKPGQPPKLLIYKASTLASGVPSRFSGSGFGTEFTLTISGVQCDDAATYYCQNNYGTRRNNYVFPFGGGTEVVVKG
notes: Rabbit monoclonal antibody (SLAM), recombinant; also called monoclonal anti-PACAP antibody 4; 4 (c47)
- IC50: inhibition of PACAP38 (10 pM)-induced activation of human PAC1 receptor, cAMP assay in SH-SY5Y (CRL-2266) cells, POC versus antibody concentration [1]: 12 nM
- IC50: inhibition of PACAP27 (10 pM)-induced activation of human PAC1 receptor, cAMP assay in SH-SY5Y (CRL-2266) cells, POC versus antibody concentration (human PACAP27): 3.7 nM
- binding result [2]: no binding (tested: 500 ng/mL)
- Optical Density [3]: 0.24 OD
- binding result [4]: no binding (tested: 1:200 molar ratio (Ab: peptide fragment))
- Optical Density [5]: 0.05 OD
- Optical Density [6]: 2.09 OD
- binding result [7]: binds
- binding result [8]: binds
- binding result [9]: binds
- binding result [10]: binds
- binding result [11]: binds
- binding result [12]: binds
- binding result (31-38 [13]): no binding (tested: 1:200 molar ratio (Ab:peptide))
- binding result (30-37): no binding (tested: 1:200 molar ratio (Ab:peptide))
- binding result [14]: no binding (tested: 1:200 molar ratio (Ab:peptide))
- binding result [15]: no binding (tested: 1:200 molar ratio (Ab:peptide))
- binding result [16]: no binding (tested: 1:200 molar ratio (Ab:peptide))
- Optical Density [17]: 3.68 OD

B2: mAb3 (antibody, V domains shown)
VH: QSLEESGGGLVQPGASLTLTCTASGFSFSSNYYMCWVRQAPGKGLEWIACIFTGSSGSTYYASWAKGRFTISKTSSTTVTLHVTSLTAADTATYFCARDRALSVVGYFYAAYYFDFWGPGTLVTVSS
VL: DVVMTQTPSPVSAAVGGTVTINCRASEDIESFLAWYQQKPGQPPKLLMSRTSTLESGVPSRFKGSGSGTEFTLTISDLECADAATYYCQCTDGSSSSSSYGWDAFGGGTEVVVKG
notes: Rabbit monoclonal antibody (SLAM), recombinant; also called monoclonal anti-PACAP antibody 3; 3 (c89)
- binding result [18]: no binding (tested: 100 ng/mL)
- Optical Density [3]: 0.07 OD
- Optical Density [5]: 3.59 OD
- Optical Density [19]: 0.06 OD
- binding result (30-37): no binding (tested: 1:200 molar ratio (Ab:peptide))
- binding result [20]: no binding (tested: 1:200 molar ratio (Ab:peptide))
- binding result [21]: no binding (tested: 1:200 molar ratio (Ab:peptide))
- binding result [16]: no binding (tested: 1:200 molar ratio (Ab:peptide))
- binding result [22]: binds

B3: mAb1 (antibody, V domains shown)
VH: QSLEESGGDLVKPGASLTLTCKASGIAFSNDYMCWVRQAPGKGLEWIACIFTGSSGSTYYASWAKGRFTISKTSSTTVTLQMTSLTAADTATYFCARDRAISVLGYFYAAYFFDFWGPGTLVTVSS
VL: DVVMTQTPSPVSAAVGGTVTINCRASEDIESFLAWYQQKPGQPPKLLISRTSTLESGVSSRFKGSGSGTEFILTISDLECADAATYYCQCTDGSSSSSSYGWDAFGGGTEVVVKG
notes: Rabbit monoclonal antibody (SLAM), cloned, recombinantly expressed and purified; also called monoclonal anti-PACAP antibody 1; 1 (c20)
- binding result [18]: no binding (tested: 100 ng/mL)
- Optical Density [3]: 0.08 OD
- binding result [23]: no binding (tested: 1:200 molar ratio (Ab: peptide fragment))
- Optical Density [5]: 5.33 OD
- Optical Density [19]: 0.05 OD
- binding result [20]: no binding (tested: 1:200 molar ratio (Ab:peptide))
- binding result [21]: no binding (tested: 1:200 molar ratio (Ab:peptide))
- binding result (31-38 [24]): binds
- binding result [22]: binds
